Measured values: patent US20090325168

Experiments:
6-TMR-NorFES-KGY-DER = tested on: T1, 6-TMR-NorFES-KGY-DER
T1 sequence: DAIPXSIPKGY

DER-NorFES-KGY-DER = tested on: T2, DER-NorFES-KGY-DER
T2 sequence: DAIPXSIPKGY

6-TMR-K-NorFES-KGY-DER = tested on: T3, 6-TMR-K-NorFES-KGY-DER
T3 sequence: KDAIPXSIPKGY

6-TMR-NorFES-KGY-6-TMR = tested on: T4, 6-TMR-NorFES-KGY-6-TMR
T4 sequence: DAIPXSIPKGY

[1] = tested on: T5, Fl-NorFES-KGY-Fl (fluorescein-NorFES-fluorescein)
T5 sequence: DAIPXSIPKGY

6-TMR-K-NorFES-KGY-6-TMR = tested on: T6, 6-TMR-K-NorFES-KGY-6-TMR
T6 sequence: KDAIPXSIPKGY

elastase was tested, and the T1/2 (cleavage rate) (6-TMR-NorFES-KGY-DER) was 1.33 min, the T1/2 (cleavage rate) (DER-NorFES-KGY-DER) was 2.53 min and the T1/2 (cleavage rate) (6-TMR-K-NorFES-KGY-DER) was 2.08 min. For the same substance, the T1/2 (cleavage rate) (6-TMR-NorFES-KGY-6-TMR) was 0.733 min, the T1/2 (cleavage rate) [1] was 0.3 min and the T1/2 (cleavage rate) (6-TMR-K-NorFES-KGY-6-TMR) was 1.4 min.
